Results taken from the supplement of paper PMC10899765.

What was measured:
Settings in all cases: 20 nM; 72 h
[1] = test system: MCF10A; assay: 5+ nucleoli phenotype percent effect (relative to siNT 0% and siKIF11 100%); higher = more cells with five or more nucleoli
Description: (§1)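 After 72 h, cells were fixed and stained with Hoechst and anti-fibrillarin, and nucleoli per nucleus were counted with CellProfiler. Values are plate-adjusted percent effect for the one-nucleolus and 5+ nucleoli phenotypes, normalised to siNT (0%) and to the positive controls siNOL11 or siKIF11 (100%), as the mean of biological triplicates. Percent viability is the nuclei count relative to siNT.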

[2] = test system: MCF10A; assay: percent viability (nuclei count relative to siNT); higher = more viable cells
Description: as §1

[3] = test system: MCF10A; assay: one-nucleolus phenotype percent effect (relative to siNT 0% and siNOL11 100%); higher = more cells with one nucleolus (ribosome biogenesis inhibition)
Description: as §1

| Sequence | 5+ nucleoli phenotype percent effect [1] [%] | percent viability [2] [%] | one-nucleolus phenotype percent effect [3] [%] |
| --- | --- | --- | --- |
| CAGCAGGGGAGAGAGAGGAGUC [hsa-miR-6510-5p] | -10.7 | 27.9 | 20.8 |
| UGAGCCGAGCUGAGCUUAGCUG [hsa-miR-4537] | -4.47 | 73.5 | -6.98 |
| GCUGGGCGAGGCUGGCA [hsa-miR-4486] | 3.78 | 38.6 | 19.5 |
| UUCUGGAUAACAUGCUGAAGCU [hsa-miR-5706] | 51.3 | 176 | -32.6 |
| UGGGGGGACAGAUGGAGAGGACA [hsa-miR-6887-5p] | -8.17 | 22.6 | 22.8 |
| UCAUCCCCCUCGCCCUCUCAG [hsa-miR-6729-3p] | 10.2 | 58.8 | -21.1 |
| UGAGUGGGGCUCCCGGGACGGCG [hsa-miR-4745-5p] | 25 | 57.7 | -8.18 |
| CGUGGAUUGUCUGGAUGCAU [hsa-miR-8056] | -25.1 | 41.8 | 12.9 |
| CUCUAGAGGGAAGCACUUUCUC [hsa-miR-518f-5p] | 3.35 | 33.5 | 8.67 |
| GUGCAUUGCUGUUGCAUUGC [hsa-miR-33b-5p] | 36 | 48.5 | -2.4 |
| GUCCUCCAGGCCAUGAGCUGCGG [hsa-miR-4691-5p] | 47.9 | 89.2 | -11.3 |
| CGGGGCCGUAGCACUGUCUGAGA [hsa-miR-128-1-5p] | 21.2 | 26.1 | 22.5 |
| GCCCUGACCUGUCCUGUUCUG [hsa-miR-4732-3p] | 21.5 | 64.3 | -20.3 |
| AAGAUGUGGAAAAAUUGGAAUC [hsa-miR-576-3p] | -7.01 | 48 | 17.9 |
| CUGGCAGGGGGAGAGGUA [hsa-miR-7150] | 0.85 | 43.9 | 46.7 |
| AUUCUGCAUUUUUAGCAAGUUC [hsa-miR-544a] | -31.2 | 26.6 | 5.39 |
| CAAAAGCAAUCGCGGUUUUUGC [hsa-miR-548e-5p] | 44 | 60.8 | -2.62 |
| UCUGUGCUACUGGAUGAAGAGU [hsa-miR-7157-3p] | 36.4 | 92.3 | -22.7 |
| GAAAAUGAUGAGUAGUGACUGAUG [hsa-miR-3662] | 57.8 | 88.3 | -17.5 |
| UUGGGGAAACGGCCGCUGAGUG [hsa-miR-2110] | -27.7 | 42.2 | 45.4 |

| Sequence | 5+ nucleoli phenotype percent effect [1] [%] | percent viability [2] [%] | one-nucleolus phenotype percent effect [3] [%] |
| --- | --- | --- | --- |
| CAGCAGCACACUGUGGUUUGU [hsa-miR-497-5p] | -38.4 | 15.2 | 50.2 |
| UGCCCCACCUGCUGACCACCCUC [hsa-miR-4758-3p] | 31.8 | 76.4 | -20.9 |
| UGAGGUAGUAGUUUGUACAGUU [hsa-let-7g-5p] | 29 | 21.6 | -16.7 |
| UGCAUCACAGCCUUUGGCCCUAG [hsa-miR-7112-3p] | 45.4 | 45.8 | -28 |
| AACAACAAAAUCACUAGUCUUCCA [hsa-miR-3529-3p] | 0.722 | 44.1 | 14.9 |
| UUCACAGUGGCUAAGUUCUGC [hsa-miR-27b-3p] | -0.0856 | 128 | -13.3 |
| UGAGGAUGGAUAGCAAGGAAGCC [hsa-miR-3605-5p] | 12 | 69.7 | -3.45 |
| UCAACAAAAUCACUGAUGCUGGA [hsa-miR-3065-5p] | 38.2 | 117 | -30.5 |
| UGAGCCCCUGUGCCGCCCCCAG [hsa-miR-1225-3p] | 19.9 | 98.1 | -16.7 |
| UCAGUCACAUAUCUAGUGUCUA [hsa-miR-4704-3p] | 10.1 | 54.4 | 5.92 |
| UCUGGUGUAUAGCGUUGCUCA [hsa-miR-7978] | -4.49 | 27.6 | 19.2 |
| AUGUCCAUAUUAUGGGUUAGU [hsa-miR-3912-5p] | 83.1 | 83.8 | -28.3 |
| AAGGUUUGGAUAGAUGCAAUA [hsa-miR-4464] | -24.5 | 29.7 | 6.58 |
| AAGUUCUGUUAUACACUCAGGC [hsa-miR-148b-5p] | -28.2 | 37.1 | 11.3 |
| UGAUUGUAGCCUUUUGGAGUAGA [hsa-miR-508-3p] | -32 | 54.1 | 23.4 |
| UCUGUCAUUUCUUUAGGCCAAUA [hsa-miR-215-3p] | -6.58 | 39.5 | 2.4 |
| UGGAUUUUUGGAUCAGGGA [hsa-miR-1290] | -26.7 | 51 | 7 |
| AAAAGCUGGGUUGAGAGGGCAA [hsa-miR-320b] | -10.2 | 59 | 8.28 |
| AUUGUUCUGUCUUUCUCCCAG [hsa-miR-6739-3p] | -25.7 | 27.3 | 7.82 |
| GGCGGGUGCGGGGGUGG [hsa-miR-3656] | 37.2 | 148 | -15.8 |

| Sequence | 5+ nucleoli phenotype percent effect [1] [%] | percent viability [2] [%] | one-nucleolus phenotype percent effect [3] [%] |
| --- | --- | --- | --- |
| UUUAAGAAAACACCAUGGAGAU [hsa-miR-3658] | 18.1 | 148 | -25.1 |
| GGGUGCGGGCCGGCGGGG [hsa-miR-4466] | 12.7 | 51.3 | -13.2 |
| AUGUAGGGCUAAAAGCCAUGGG [hsa-miR-135b-3p] | 10.5 | 14.3 | 6.54 |
| GUAGGGGCGUCCCGGGCGCGCGGG [hsa-miR-6789-5p] | 28.1 | 77.1 | -25.6 |
| AGUGCCUGCUAUGUGCCAGGCA [hsa-miR-1271-3p] | 4.16 | 39.3 | -6.99 |
| UAGACGUGGUGAAGGAUUGAGUG [hsa-miR-6863] | -16.5 | 47.3 | 1.02 |
| UUGUGGGUGGGCAGAAGUCUGU [hsa-miR-6759-5p] | -37.5 | 21.7 | 49.5 |
| GAACGCCUGUUCUUGCCAGGUGG [hsa-miR-614] | -0.465 | 72.8 | -10.6 |
| GGAGAUGGAGGUUGCAGUG [hsa-miR-1273f] | 1.46 | 62.9 | 20.3 |
| UUUUUCAUUAUUGCUCCUGACC [hsa-miR-335-3p] | 26.8 | 157 | -20.3 |
| UAUCAUGGAGUUGGUAAAGCAC [hsa-miR-2681-3p] | 14.2 | 62.4 | -14.9 |
| UGGAAAAAACUGGUGUGUGCUU [hsa-miR-3148] | -1.39 | 35.9 | -7.81 |
| CACCUUGCGCUACUCAGGUCUG [hsa-miR-3200-3p] | -0.139 | 24.5 | -8.76 |
| AAAAGUAAUUGUGGUUUUUGCC [hsa-miR-548d-5p] | 49.4 | 95.4 | -15.4 |
| AGGAGGACAAGUUGUGGGAU [hsa-miR-7154-3p] | -9.57 | 7.01 | 39.7 |
| GGGGAAAGCGAGUAGGGACAUUU [hsa-miR-3153] | 13.5 | 55.6 | -1 |
| CCUCACCAUCCCUUCUGCCUGC [hsa-miR-6511a-3p] | 24.1 | 41.3 | -11.2 |
| AGGCAGGUUAUCUGGGCUG [hsa-miR-4736] | 13.2 | 12 | 19.8 |
| CCAGAGGUGGGGACUGAG [hsa-miR-4257] | 1.69 | 24.6 | 22.3 |
